# Experimental data as given in PMC7617869 (Nature Structural & Molecular Biology, 2025).
# B1: SHMT2ΔN(A285T) (residues 18–504) (enzyme)
# chain: QLVRMAIRAQHSNAAQTQTGEANRGWTGQESLSDSDPEMWELLQREKDRQCRGLELIASENFCSRAALEALGSCLNNKYSEGYPGKRYYGGAEVVDEIELLCQRRALEAFDLDPAQWGVNVQPYSGSPANLAVYTALLQPHDRIMGLDLPDGGHLTHGYMSDVKRISATSIFFESMPYKLNPKTGLIDYNQLALTARLFRPRLIIAGTSAYARLIDYARMREVCDEVKAHLLADMAHISGLVAAKVIPSPFKHADIVTTTTHKTLRGTRSGLIFYRKGVKAVDPKTGREIPYTFEDRINFAVFPSLQGGPHNHAIAAVAVALKQACTPMFREYSLQVLKNARAMADALLERGYSLVSGGTDNHLVLVDLRPKGLDGARAERVLELVSITANKNTCPGDRSAITPGGLRLGAPALTSRQFREDDFRRVVDFIDEGVNIGLEVKSKTAKLQDFKSFLLKDSETSQRLANLRQRVEQFARAFPMPGFDEH
# notes: serine hydroxymethyltransferase 2 (SHMT2), residues 18-504; also called SHMT2(A285T); serine hydroxymethyltransferase 2
# Experiments:
# Settings in all cases: both partners purified
# [1] = molecular target: T1, His-tagged BRISC (wild type) (human, UniProt P46736 1-316; Q15018 1-415; Q9NXR7 1-383; Q9NWV8 1-329); experiment: other fluorescence titration; spectral shift (Dianthus); labelled His–BRISC first incubated with 100 μM FX-171-C (1% DMSO) 15 min, then with SHMT2(A285T) 30 min at 25 °C
# [2] = molecular target: T1, His-tagged BRISC (wild type); experiment: other fluorescence titration; spectral shift (Dianthus); labelled His–BRISC first incubated with 100 μM JMS-175-2 (1% DMSO) 15 min, then with SHMT2(A285T) 30 min at 25 °C
# [3] = molecular target: T1, His-tagged BRISC (wild type); experiment: other fluorescence titration; spectral shift (Dianthus); 12.5 nM RED-Tris-NTA-labelled His–BRISC, SHMT2(A285T) 46 μM to 1.4 nM; 25 mM HEPES pH 7.5, 150 mM NaCl, 1 mM DTT, 0.005% Tween-20; 25 °C; no compound
binder,measurement,setting,value
B1,KD after incubation of BRISC with FX-171-C,[1],3600 ± 1800 nM
same,KD after incubation of BRISC with JMS-175-2,[2],700 ± 300 nM
same,Kd,[3],400 ± 100 nM
